Reference: patent US9920105B2, “Human ferritin-derived fusion polypeptide” (Kyungpook National University Industry-Academic Cooperation …, priority 2013, dated 2018)

T1: IL-4 receptor (Homo sapiens, UniProt P24394)
T1 sequence (P24394 26-825): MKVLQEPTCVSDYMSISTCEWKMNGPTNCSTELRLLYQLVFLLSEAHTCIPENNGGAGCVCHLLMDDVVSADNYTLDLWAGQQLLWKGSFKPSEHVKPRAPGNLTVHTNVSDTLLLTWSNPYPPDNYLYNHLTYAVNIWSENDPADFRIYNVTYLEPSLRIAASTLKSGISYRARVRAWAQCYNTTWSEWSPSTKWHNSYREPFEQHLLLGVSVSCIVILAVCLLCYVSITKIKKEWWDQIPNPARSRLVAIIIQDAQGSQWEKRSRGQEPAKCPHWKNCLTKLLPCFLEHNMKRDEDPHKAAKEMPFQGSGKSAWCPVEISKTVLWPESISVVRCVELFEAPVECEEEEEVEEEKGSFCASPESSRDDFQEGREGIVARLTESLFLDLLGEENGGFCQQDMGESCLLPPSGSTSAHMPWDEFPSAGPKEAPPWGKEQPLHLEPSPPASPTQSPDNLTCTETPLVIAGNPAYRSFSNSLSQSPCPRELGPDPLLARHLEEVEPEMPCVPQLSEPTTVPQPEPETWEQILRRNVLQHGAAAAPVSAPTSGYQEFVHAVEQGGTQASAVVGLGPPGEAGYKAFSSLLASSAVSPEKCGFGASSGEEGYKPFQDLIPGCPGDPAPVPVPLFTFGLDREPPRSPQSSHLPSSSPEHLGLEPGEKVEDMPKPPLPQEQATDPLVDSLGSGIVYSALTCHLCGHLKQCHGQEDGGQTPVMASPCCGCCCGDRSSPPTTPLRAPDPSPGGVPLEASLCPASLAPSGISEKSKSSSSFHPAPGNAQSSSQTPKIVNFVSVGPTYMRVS

B1: FTL-GRGDSP-AP1: ferritin having inserted GRGDSP and AP1 peptides (protein)
chain: MGRGDSPGGGSGMSSQIRQNYSTDVEAAVNSLVNLYLQASYTYLSLGFYFDRDDVALEGVSHFFRELAEEKREGYERLLKMQNQRGGRALFQDIKKPAEDEWGKTPDAMKAAMALEKKLNQALLDLHALGSARTDPHLCDFLETHFLDEEVKLIKKMGDHLTNLHRGSRKRLDRNGGPEAGLGEYLFERLTLKHD
modifications: left off: small tags and cut ends
notes: ferritin having inserted GRGDSP and AP1 peptides
B2: FTL-AP1_AP1: fusion polypeptide in which AP1S was additionally fused to N-terminal of FTL_GG-AP1S (protein)
chain: MRKRLDRNGGGSGMSSQIRQNYSTDVEAAVNSLVNLYLQASYTYLSLGFYFDRDDVALEGVSHFFRELAEEKREGYERLLKMQNQRGGRALFQDIKKPAEDEWGKTPDAMKAAMALEKKLNQALLDLHALGSARTDPHLCDFLETHFLDEEVKLIKKMGDHLTNLHRGSRKRLDRNGGPEAGLGEYLFERLTLKHD
modifications: left off: small tags and cut ends
B3: FTL-RGD-AP1: human ferritin light chain with inserted RGD and AP1 peptides (AP1 exchanged with RGD relative to FTL-AP1_RGD) (protein)
chain: MRGDGGGSGMSSQIRQNYSTDVEAAVNSLVNLYLQASYTYLSLGFYFDRDDVALEGVSHFFRELAEEKREGYERLLKMQNQRGGRALFQDIKKPAEDEWGKTPDAMKAAMALEKKLNQALLDLHALGSARTDPHLCDFLETHFLDEEVKLIKKMGDHLTNLHRGSRKRLDRNGGPEAGLGEYLFERLTLKHD
modifications: left off: small tags and cut ends
B4: GG-AP1S: human ferritin light chain with AP1S (RKRLDRN) inserted in GG cassette of the fourth loop; named FTL-AP1 in Examples 6-9 (protein)
chain: MSSQIRQNYSTDVEAAVNSLVNLYLQASYTYLSLGFYFDRDDVALEGVSHFFRELAEEKREGYERLLKMQNQRGGRALFQDIKKPAEDEWGKTPDAMKAAMALEKKLNQALLDLHALGSARTDPHLCDFLETHFLDEEVKLIKKMGDHLTNLHRGSRKRLDRNGGPEAGLGEYLFERLTLKHD
modifications: left off: small tags and cut ends

What was measured:
[1] = system: A549 cells overexpressing IL-4 receptor; test: Cell binding test using flow cytometry (FACS); type: cell-based, human
Protocol: First, A549 cells were grown to about 80% confluence in a 100 mm-diameter plate. The plated cells were washed twice with PBS, and detached from the plate using Trypsin/EDTA. Then, 2×10^5/100 μl cells were suspended in PBS containing 1% bovine serum albumin (BSA), and incubated at 4° C. for 30 min. […] The above blocking procedure was performed on one group, and was not performed on the other group, and the following experiment was performed on both groups. After washing twice with PBS, the ferritin without AP1 insertion and the AP1-inserted ferritin were diluted to 400 nM in buffer (20 mM Tris, 150 mM NaCl, 180 mM Histidine), and then allowed to bind at 4° C. for 20 min. After washing twice with PBS, the ferritin light chain antibody (D-18, sc-14420) was diluted to 1:400 in PBS buffer containing 1% BSA, and incubated in ice for 30 min. After washing twice with PBS, Alexa Fluor 488 donkey anti-goat IgG (H+L) antibody (invitrogen, USA) was diluted to 1:200 in PBS containing 1% BSA, and incubated in ice for 30 min. After washing twice with PBS, the cells were suspended in 500 ul PBS, and analyzed with FACS.
First, A549 cells were grown to about 80% confluence in a 100 φ plate. The plated cells were washed twice with PBS, and detached from the plate using Trypsin/EDTA. […] After washing twice with PBS, the cells were suspended in 500 ul PBS, and then analyzed with FACS.

[2] = system: A549 cells overexpressing IL-4 receptor; test: Cell binding test using confocal microscope; type: cell-based; settings: 400 nM, 4° C., 20 min, FIG. 6
Protocol: First, A549 cells were grown to about 80% confluence in a 100 mm-diameter plate. The plated cells were washed twice with PBS, and detached from the plate using Trypsin/EDTA. Then, 2×10^5/100 ul cells were suspended in PBS containing 1% bovine serum albumin (BSA), and incubated at 4° C. for 30 min. After washing twice with PBS, the ferritin without AP1 insertion and the AP1-inserted ferritin were diluted to 400 nM in buffer (20 mM Tris, 150 mM NaCl, 180 mM Histidine), and then allowed to bind at 4° C. for 20 min. After washing twice with PBS, the ferritin light chain antibody (D-18, sc-14420) was diluted to 1:400 in PBS buffer containing 1% BSA, and incubated in ice for 30 min. After washing twice with PBS, Alexa Fluor 488 donkey anti-goat IgG (H+L) antibody was diluted to 1:200 in PBS containing 1% BSA, and then incubated in ice for 30 min. After washing twice with PBS, 4% paraformaldehyde (PFA) was added for cell fixation, and cells in suspension were added in the 8-well slide chamber. The cells were attached in the chamber by centrifugation at 1000 rpm for 10 min.
After washing twice with PBS, the cells were stained by incubation with 4′,6-diamidino-2-phenylindole (DAPI) for 3 min in dark place, mounted in antifade reagent to close a cover glass, and analyzed by Z-stack type confocal microscopy.

integrin alphavbeta3 = integrin alphavbeta3 (Homo sapiens, UniProt P05106+P06756); test: SPR analysis of binding affinity to integrin alphavbeta3; settings: FIG. 16
Protocol: Then, 40 mM N-(3-dimethylaminopropyl)-N′-ethylcarbodiimide hydrochloride (EDC)/10 mM N-hydroxy-succinimide (NHS) were allowed to flow over each channel (left, right) of carboxymethyl dextran chip for 7 min for surface activation, and then 200 ul of the prepared alphavbeta3 protein was allowed to flow over the left channel for 7 min for immobilization. Here, the right channel was used as a reference channel. In the two channels, left channel and right channel, 1M ethanolamine (pH 8.5) solution was allowed to flow over the unreacted surface for 7 min for blocking, so as to reduce non-specific adsorption thereof. All test procedures were conducted at a temperature of 25° C. and the flow rate was 25 ul/min.
The buffer (10 mM Hepes pH 7.4, 150 mM NaCl, 180 mM Histidine, 1 mM MgCl2, 0.005% Tween 20) was used through filtering and degassing. The wild type ferritin and the RGD-inserted ferritins were allowed to flow over at concentrations of 0.65 nM, 1.3 nM, 2.6 nM, 5.2 nM, 10.4 nM, 20.8 nM, and 41.6 nM, respectively, for 3 min, and the same buffer was allowed to flow over for 3 min. For regeneration, 2 M NaCl was allowed to flow over for 1 min to wash the proteins remaining without dissociation. […]
(§1) In the binding graph, the RU value expressing the amount of bound protein was measured by subtracting the blank (buffer) value and reference channel (right channel) value, using Scrubber software.

IL-4 receptor = target: T1, IL-4 receptor; test: Surface plasmon resonance (SPR) analysis of binding affinity to immobilised IL-4 receptor; settings: Table 4
Protocol: Here, the right channel was used as a reference channel. In the two channels, left channel and right channel, 1M ethanolamine (pH 8.5) solution was allowed to flow over the unreacted surface for 7 min for blocking, so as to reduce non-specific adsorption thereof. All test procedures were conducted at a temperature of 25° C. and the flow rate was 25 ul/min.
The buffer (20 mM Tris-HCl pH 8.0, 150 mM NaCl, 180 mM Histidine, 62.5 ug/ml BSA, 0.005% Tween 20) was used through filtering and degassing. The wild type ferritin and the AP1-inserted ferritins were allowed to flow over at concentrations of 0.65 nM, 1.3 nM, 2.6 nM, 5.2 nM, 10.4 nM, 20.8 nM, and 41.6 nM for 3 min, and the same buffer was allowed to flow over for 3 min. For regeneration, 2 M NaCl was allowed to flow over for […] to wash the proteins remaining without dissociation. Specific binding values, obtained by subtracting the right channel value from the left channel value, in the concentration ranging from 0.65 nM to 10.4 nM, were plotted on a graph.
AP1 peptide was allowed to flow over at concentrations of 3.125 uM, 6.25 uM, 12.5 uM, 25 uM, and 50 uM for 3 min, and the same buffer was allowed to flow over for 3 min. For regeneration, 2 M NaCl was allowed to flow over for 1 min to wash the proteins remaining without dissociation. Specific binding values, obtained by subtracting the right channel value from the left channel value, in the respective concentrations, were plotted on a graph (see FIG. 8).
as §1, with “software. The KD value was obtained from the binding RU (Req) values measured at the respective concentrations using KaleidaGraph software.” for “software.”
The experiment was conducted like in example <5-1>, and RU values shown for concentrations ranging from 0.65 nM to 41.6 nM were plotted on a graph using GraphPad prism 4 program.
For comparison of binding affinity between FTL-AP1 and FTL-AP1_AP1, surface plasmon resonance analysis was conducted. Analysis was conducted by the same method as in Example <5-1>. The binding of FTL-AP1 was analyzed at concentrations of 0.26 nM, 1.041 nM, 2.083 nM, and 4.166 nM, respectively, and the binding of FTL-AP1_AP1 was analyzed at concentrations of 0.520 nM, 1.041 nM, 2.083 nM, and 4.166 nM, respectively.

integrin alphavbeta3, sequence (P06756 31-1048): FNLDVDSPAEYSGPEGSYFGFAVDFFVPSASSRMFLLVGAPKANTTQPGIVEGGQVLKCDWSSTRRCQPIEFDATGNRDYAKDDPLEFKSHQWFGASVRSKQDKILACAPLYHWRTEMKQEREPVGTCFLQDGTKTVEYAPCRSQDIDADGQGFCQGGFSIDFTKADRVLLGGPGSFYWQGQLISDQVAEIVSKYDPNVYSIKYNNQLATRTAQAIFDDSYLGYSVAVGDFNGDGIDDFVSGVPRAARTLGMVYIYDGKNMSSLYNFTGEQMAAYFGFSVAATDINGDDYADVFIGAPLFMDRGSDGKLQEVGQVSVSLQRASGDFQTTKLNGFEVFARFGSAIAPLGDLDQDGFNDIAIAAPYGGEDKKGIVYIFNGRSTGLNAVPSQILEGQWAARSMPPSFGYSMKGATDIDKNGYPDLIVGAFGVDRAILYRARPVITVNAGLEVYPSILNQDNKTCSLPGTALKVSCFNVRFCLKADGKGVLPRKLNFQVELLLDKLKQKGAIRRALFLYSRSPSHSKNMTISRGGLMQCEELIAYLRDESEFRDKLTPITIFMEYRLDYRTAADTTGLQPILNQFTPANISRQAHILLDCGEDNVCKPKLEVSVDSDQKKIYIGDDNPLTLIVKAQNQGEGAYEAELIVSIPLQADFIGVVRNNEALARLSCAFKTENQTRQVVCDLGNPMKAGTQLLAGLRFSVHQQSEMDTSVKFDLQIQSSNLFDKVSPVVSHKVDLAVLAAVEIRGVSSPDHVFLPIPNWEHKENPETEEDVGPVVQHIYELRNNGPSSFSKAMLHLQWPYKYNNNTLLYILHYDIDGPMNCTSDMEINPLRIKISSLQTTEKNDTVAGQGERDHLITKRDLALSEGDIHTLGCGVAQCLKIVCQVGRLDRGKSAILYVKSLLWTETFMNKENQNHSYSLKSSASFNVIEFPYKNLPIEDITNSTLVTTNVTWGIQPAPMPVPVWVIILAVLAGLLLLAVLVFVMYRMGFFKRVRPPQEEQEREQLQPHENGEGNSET
integrin alphavbeta3, sequence (P05106 27-788): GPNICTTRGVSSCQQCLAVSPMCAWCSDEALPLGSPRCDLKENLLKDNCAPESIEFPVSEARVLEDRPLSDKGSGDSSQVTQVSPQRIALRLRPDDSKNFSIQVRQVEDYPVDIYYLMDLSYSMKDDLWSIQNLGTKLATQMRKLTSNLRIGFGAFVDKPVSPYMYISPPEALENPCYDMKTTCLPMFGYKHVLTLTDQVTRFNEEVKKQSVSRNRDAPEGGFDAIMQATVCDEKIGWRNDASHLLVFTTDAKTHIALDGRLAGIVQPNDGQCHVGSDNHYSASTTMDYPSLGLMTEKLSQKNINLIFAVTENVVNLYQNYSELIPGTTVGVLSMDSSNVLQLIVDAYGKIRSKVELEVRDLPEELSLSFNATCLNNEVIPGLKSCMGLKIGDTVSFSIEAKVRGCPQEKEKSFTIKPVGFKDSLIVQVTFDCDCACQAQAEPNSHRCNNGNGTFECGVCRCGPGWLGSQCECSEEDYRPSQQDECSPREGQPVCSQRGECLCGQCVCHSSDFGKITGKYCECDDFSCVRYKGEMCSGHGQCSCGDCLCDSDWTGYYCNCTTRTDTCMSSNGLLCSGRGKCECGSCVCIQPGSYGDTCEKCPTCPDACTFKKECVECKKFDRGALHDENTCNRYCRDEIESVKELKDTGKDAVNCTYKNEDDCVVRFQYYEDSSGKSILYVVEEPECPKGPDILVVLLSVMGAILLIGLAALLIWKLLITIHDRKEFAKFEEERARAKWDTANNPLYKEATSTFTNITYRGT

| Molecule | binding to integrin alphavbeta3 (integrin alphavbeta3) | Koff (IL-4 receptor) | Kon (IL-4 receptor) | also measured |
| --- | --- | --- | --- | --- |
| wild type ferritin: human ferritin light chain (SEQ ID NO: 1) without AP1 insertion, control cage [reference compound] | – | – | – | binding to IL-4 receptor in A549 cells (FACS) ([1]; 400 nM, 4° C., 20 min, FIG. 5): did not bind to IL-4 receptor; binding to A549 cells / cell membrane (confocal microscopy) [2]: did not bind to A549 cells |
| B1 | bound to integrin alphavbeta3 in a concentration-dependent manner | – | – | – |
| B2 | – | 3.8 × 10^−5 S^−1 | 8.26 × 10^5 M^−1S^−1 | amount bound to IL-4 receptor compared with FTL-AP1 (FACS) ([1]; at 400 nM and 200 nM, FIG. 13): larger amount than FTL-AP1 |
| B3 | bound to integrin alphavbeta3 in a concentration-dependent manner | – | – | – |
| B4 | – | 1.25 ± 0.4 × 10^−3 S^−1 | 1.22 ± 0.64 × 10^6 M^−1S^−1 | – |
